The values that follow come from patent US20110020220A1 (DELENEX THERAPEUTICS, published 2011).

Broadly, the EC50 is the midpoint of the concentration-response curve. A high value points to lower potency in that assay.

One test deals with T1, Biotinylated Abeta40 (UniProt P05067 672-711, biotinylated (site not stated)).
T1 construct: domain: Abeta40 (40 amino acid peptide); Captured on neutravidin-coated ELISA plates; also called beta-amyloid40
As to the kind of experiment: ELISA, biotinylated Abeta40 on neutravidin plates, ESBA212 0 to 500 nM. The protocol: (§1) The binding properties of ESBA212 were tested in an ELISA where Abeta40 and Abeta42, respectively, were used as antigens. 96-well plates were coated with 5 μg/ml neutravidin in dilution buffer (PBS/0.01% BSA/0.2% Tween-20) and incubated overnight at 4° C. The plates were then washed 3 times with TBS/0.005% Tween-20. Biotinylated Abeta40 or Abeta42 (1 μg/ml in dilution buffer) were added to each well and the plate incubated for 15 minutes at room temperature. Plates were washed as above and non-specific binding sites were blocked by addition of dilution buffer. The plates were incubated for another 1.5 hours at room temperature while shaking. After washing the prepared ESBA212 dilutions from 0 to 500 nM were added in triplicates to the wells and incubated for 1 hour at room temperature (RT) while shaking. Plates were washed and ESBA212 was detected by a purified rabbit polyclonal anti-ESBA212 antibody (1:10000 in dilution buffer) for 1 hour at RT. After washing a horseradish peroxidase-labelled anti-rabbit IgG (1:4000 in dilution buffer) was used to detect the previously bound rabbit antibodies and […]. The reaction was stopped by addition of 1 M HCl and the absorption read at 450 nm.
(§2) From the measured ESBA212 curve an EC50 could be calculated.
On the technique in general: ELISA stands for enzyme-linked immunosorbent assay.

The next test concerns the target T2, Biotinylated Abeta42 (UniProt P05067 672-713, biotinylated (site not stated)).
T2 construct: domain: Abeta42 (42 amino acid peptide); Captured on neutravidin-coated ELISA plates; also called beta-amyloid42
As to the kind of experiment: ELISA, biotinylated Abeta42 on neutravidin plates, ESBA212 0 to 500 nM. How it is done:
as §1, §2

T2 sequence (P05067 672-713 limits assumed): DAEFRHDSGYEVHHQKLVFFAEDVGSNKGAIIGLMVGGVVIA
T1 sequence (P05067 672-711 limits assumed): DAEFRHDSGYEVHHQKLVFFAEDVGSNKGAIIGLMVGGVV

B1: ESBA212 (scFv)
scFv: ADIVLTQSPSSLSASVGDRVTLTCRASSSVNYMHWYQQRPGKPPKALIYATSNLASGVPSRFSGSGSGTEFTLTISSLQPEDVAVYYCQQWRTNPPTFGQGTKLEVKRGGGGSGGGGSGGGGSGGGGSQVQLVQSGPEVKKPGASVKVSCTASGYTFTEYTMHWVRQAPGQGLEWMGGVNPYNDNTSYIRKLQGRVTLTVDRSSSTAYMELTSLTSDDTAVYYCARYGGLRPYYFPMDFWGQGTLVTVSS
notes: Humanized scFv with the CDRs of mouse antibody 22C4 on framework 2.3; also called scFv ESBA212; single chain antibody ESBA212
Take B1: the EC50 with Biotinylated Abeta40 and in the test with Biotinylated Abeta42 was 1 to 15 nM in each case.
